The source of these data is article PMC4874009, “Super-resolution microscopy reveals structural diversity in molecular exchange among peptide amphiphile nanofibres” (Nature Communications, 2016).

The star is where a group is joined. Cy3 = disulfo-cyanine carboxylic acid dye; Cy5 = disulfo-cyanine carboxylic acid dye; Palmitoyl = CCCCCCCCCCCCCCCC(=O)*

To fix the notation:
T1: non-labelled peptide amphiphile (palmitic acid tail, six alanines, three glutamic acids)
T1 construct: designed peptide amphiphile, not a stretch of a natural protein; also called non-labelled PA; unlabelled PA; source: synthetic peptide (Fmoc solid-phase synthesis, purified by reversed-phase HPLC)
T1 peptide: Palmitoyl-AAAAAAEEE-NH2

B1: peptide amphiphile labelled with the sulfonated cyanine dye Cy5 (peptide)
peptide: Palmitoyl-AAAAAAEEEK(Cy5)-NH2
notes: designed peptide amphiphile; Made on MBHA rink amide resin, so the C-terminus is probably an amide (surmised); also called Cy5-PA; PA-Cy5; source: synthetic peptide (Fmoc solid-phase synthesis, purified by reversed-phase HPLC)
B2: peptide amphiphile labelled with the sulfonated cyanine dye Cy3 (peptide)
peptide: Palmitoyl-AAAAAAEEEK(Cy3)-NH2
notes: designed peptide amphiphile; Made on MBHA rink amide resin, so the C-terminus is probably an amide (surmised); also called Cy3-PA; PA-Cy3; source: synthetic peptide (Fmoc solid-phase synthesis, purified by reversed-phase HPLC)

In assay [1] the target is T1, non-labelled peptide amphiphile …. The assay can be described thus: FRET or BRET; nanofibres co-assembled from non-labelled PA with Cy3-PA (1 mol%) and Cy5-PA (0, 0.1, 0.2 and 0.5 mol%); 10 mM HEPES pH 7.5, NaCl 150 mM, final PA concentration 0.5 mM; emission spectra at the Cy3 excitation wavelength 520 nm. As to conditions: both partners purified. (In BRET a luciferase serves as donor, and the signal depends on an acceptor being close.)

In assay [2] the target is B2. The description is as above. The following applies: both partners purified.

As for B1, the binding result in assay [1] and in assay [2] was “binds” throughout. With B2, the binding result in assay [1] was “binds”.
